# Experimental data published in patent US20180155451A1 (published 2018).
# T1: FcγRIIb extracellular domain with C-terminal His tag (human, UniProt P31994 43-217)
# T1 construct: extracellular domain; Expressed in FreeStyle293 cells; used as analyte in Biacore; also called FcgRIIb; 2b; not shown: C-terminal His tag
# T1 sequence (looked up): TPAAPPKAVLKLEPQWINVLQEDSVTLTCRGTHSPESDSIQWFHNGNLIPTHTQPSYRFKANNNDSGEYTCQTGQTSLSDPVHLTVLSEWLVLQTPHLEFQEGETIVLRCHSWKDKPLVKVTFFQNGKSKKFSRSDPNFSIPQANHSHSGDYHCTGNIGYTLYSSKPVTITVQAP
# B1: GpH7-B3 variant L328_07I/GpL16-k0 (Ho Ab) (antibody, human IgG1, kappa)
# heavy: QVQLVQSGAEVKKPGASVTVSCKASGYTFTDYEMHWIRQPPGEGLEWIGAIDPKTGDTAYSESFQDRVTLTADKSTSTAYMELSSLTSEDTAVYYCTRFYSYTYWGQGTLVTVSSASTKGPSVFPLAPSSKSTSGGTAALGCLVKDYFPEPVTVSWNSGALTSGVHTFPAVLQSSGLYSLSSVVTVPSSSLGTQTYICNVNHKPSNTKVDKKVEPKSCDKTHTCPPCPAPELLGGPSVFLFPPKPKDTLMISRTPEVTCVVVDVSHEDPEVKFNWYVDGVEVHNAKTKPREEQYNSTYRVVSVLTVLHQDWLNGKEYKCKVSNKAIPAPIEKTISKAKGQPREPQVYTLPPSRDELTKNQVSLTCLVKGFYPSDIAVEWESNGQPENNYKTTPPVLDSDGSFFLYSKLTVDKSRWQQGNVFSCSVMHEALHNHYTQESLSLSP
# light: DIVMTQSPLSLPVTPGEPASISCQASESLVHSNRNTYLHWYLQKPGQSPQLLIYKVSNRFSGVPDRFSGSGSGTDFTLKISRVEAEDVGVYYCSQNTHVPPTFGQGTKVEIERTVAAPSVFIFPPSDEQLKSGTASVVCLLNNFYPREAKVQWKVDNALQSGNSQESVTEQDSKDSTYSLSSTLTLSKADYEKHKVYACEVTHQGLSSPVTKSFNRGEC
# notes: Substitution in both H chains; position in EU numbering; also called L328I homodimerized antibody
# B2: GpH7-B3 variant S239_08L/GpL16-k0 (Ho Ab) (antibody, human IgG1, kappa)
# heavy: not shown
# light: B1 light
# notes: Substitution in both H chains; position in EU numbering; also called S239L homodimerized antibody
# B3: GpH7-B3 variant P271_08L/GpL16-k0 (Ho Ab) (antibody, human IgG1, kappa)
# heavy: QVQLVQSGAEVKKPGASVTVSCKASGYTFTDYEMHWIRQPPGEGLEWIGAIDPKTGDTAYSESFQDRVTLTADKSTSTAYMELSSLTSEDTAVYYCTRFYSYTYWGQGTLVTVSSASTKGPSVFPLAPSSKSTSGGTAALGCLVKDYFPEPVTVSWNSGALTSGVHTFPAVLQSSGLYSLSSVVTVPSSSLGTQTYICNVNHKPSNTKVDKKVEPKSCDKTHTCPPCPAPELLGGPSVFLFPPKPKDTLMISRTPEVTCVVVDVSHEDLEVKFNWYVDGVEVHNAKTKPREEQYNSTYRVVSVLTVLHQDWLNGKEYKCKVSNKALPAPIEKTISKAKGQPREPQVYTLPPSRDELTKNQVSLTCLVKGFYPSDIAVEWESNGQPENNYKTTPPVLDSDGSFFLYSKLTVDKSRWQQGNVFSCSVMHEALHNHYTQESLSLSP
# light: B1 light
# notes: Substitution in both H chains; position in EU numbering; also called P271L homodimerized antibody
# B4: GpH7-B3 variant L328_19Q/GpL16-k0 (Ho Ab) (antibody, human IgG1, kappa)
# heavy: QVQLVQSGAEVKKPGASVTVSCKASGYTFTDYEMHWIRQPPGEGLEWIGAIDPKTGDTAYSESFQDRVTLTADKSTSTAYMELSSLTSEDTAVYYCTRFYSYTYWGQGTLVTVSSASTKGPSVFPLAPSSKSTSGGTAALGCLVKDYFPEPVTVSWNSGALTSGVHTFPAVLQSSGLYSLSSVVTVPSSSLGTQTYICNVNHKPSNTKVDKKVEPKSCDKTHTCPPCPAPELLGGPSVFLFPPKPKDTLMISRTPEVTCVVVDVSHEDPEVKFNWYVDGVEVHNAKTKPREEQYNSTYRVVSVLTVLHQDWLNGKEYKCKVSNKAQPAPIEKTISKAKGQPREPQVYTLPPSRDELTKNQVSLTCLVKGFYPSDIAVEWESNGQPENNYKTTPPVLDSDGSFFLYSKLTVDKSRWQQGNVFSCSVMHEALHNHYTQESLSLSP
# light: B1 light
# notes: Substitution in both H chains; position in EU numbering; also called L328Q homodimerized antibody
# B5: GpH7-B3 variant K334_18N/GpL16-k0 (Ho Ab) (antibody, human IgG1, kappa)
# heavy: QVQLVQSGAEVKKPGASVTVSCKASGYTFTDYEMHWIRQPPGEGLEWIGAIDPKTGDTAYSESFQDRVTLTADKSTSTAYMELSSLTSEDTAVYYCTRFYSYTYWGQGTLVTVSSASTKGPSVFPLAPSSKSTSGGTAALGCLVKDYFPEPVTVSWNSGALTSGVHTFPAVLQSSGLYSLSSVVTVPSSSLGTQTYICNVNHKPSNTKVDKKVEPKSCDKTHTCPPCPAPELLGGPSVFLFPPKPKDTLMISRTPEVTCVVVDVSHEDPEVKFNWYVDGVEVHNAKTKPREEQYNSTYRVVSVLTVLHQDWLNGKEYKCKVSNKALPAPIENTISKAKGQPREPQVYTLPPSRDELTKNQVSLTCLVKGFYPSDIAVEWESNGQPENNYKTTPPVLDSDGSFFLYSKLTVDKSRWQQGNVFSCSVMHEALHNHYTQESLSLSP
# light: B1 light
# notes: Substitution in both H chains; position in EU numbering; also called K334N homodimerized antibody
# B6: GpH7-B3 variant S337_14T/GpL16-k0 (Ho Ab) (antibody, human IgG1, kappa)
# heavy: not shown
# light: B1 light
# notes: Substitution in both H chains; position in EU numbering; also called S337T homodimerized antibody
# B7: GpH7-B3 variant K334_16H/GpL16-k0 (Ho Ab) (antibody, human IgG1, kappa)
# heavy: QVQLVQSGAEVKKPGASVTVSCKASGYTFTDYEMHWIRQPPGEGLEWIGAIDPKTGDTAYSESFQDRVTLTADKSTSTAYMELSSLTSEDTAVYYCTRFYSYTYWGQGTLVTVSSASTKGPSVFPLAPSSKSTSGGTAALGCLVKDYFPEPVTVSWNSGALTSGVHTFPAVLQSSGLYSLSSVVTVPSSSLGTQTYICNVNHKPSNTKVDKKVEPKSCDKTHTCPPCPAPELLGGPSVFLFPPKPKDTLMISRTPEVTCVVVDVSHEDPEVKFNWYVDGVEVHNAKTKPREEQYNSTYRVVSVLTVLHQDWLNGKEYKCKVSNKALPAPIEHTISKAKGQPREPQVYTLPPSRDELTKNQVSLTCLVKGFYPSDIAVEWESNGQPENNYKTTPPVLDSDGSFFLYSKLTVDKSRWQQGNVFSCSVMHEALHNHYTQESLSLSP
# light: B1 light
# notes: Substitution in both H chains; position in EU numbering; also called K334H homodimerized antibody
# B8: GpH7-B3 variant S337_09D/GpL16-k0 (Ho Ab) (antibody, human IgG1, kappa)
# heavy: not shown
# light: B1 light
# notes: Substitution in both H chains; position in EU numbering; also called S337D homodimerized antibody
# B9: GpH7-B3 variant L328_04F/GpL16-k0 (Ho Ab) (antibody, human IgG1, kappa)
# heavy: not shown
# light: B1 light
# notes: Substitution in both H chains; position in EU numbering; also called L328F homodimerized antibody
# B10: GpH7-B3 variant T335_08L/GpL16-k0 (Ho Ab) (antibody, human IgG1, kappa)
# heavy: not shown
# light: B1 light
# notes: Substitution in both H chains; position in EU numbering; also called T335L homodimerized antibody
# B11: GpH7-B3 variant S267_08L/GpL16-k0 (Ho Ab) (antibody, human IgG1, kappa)
# heavy: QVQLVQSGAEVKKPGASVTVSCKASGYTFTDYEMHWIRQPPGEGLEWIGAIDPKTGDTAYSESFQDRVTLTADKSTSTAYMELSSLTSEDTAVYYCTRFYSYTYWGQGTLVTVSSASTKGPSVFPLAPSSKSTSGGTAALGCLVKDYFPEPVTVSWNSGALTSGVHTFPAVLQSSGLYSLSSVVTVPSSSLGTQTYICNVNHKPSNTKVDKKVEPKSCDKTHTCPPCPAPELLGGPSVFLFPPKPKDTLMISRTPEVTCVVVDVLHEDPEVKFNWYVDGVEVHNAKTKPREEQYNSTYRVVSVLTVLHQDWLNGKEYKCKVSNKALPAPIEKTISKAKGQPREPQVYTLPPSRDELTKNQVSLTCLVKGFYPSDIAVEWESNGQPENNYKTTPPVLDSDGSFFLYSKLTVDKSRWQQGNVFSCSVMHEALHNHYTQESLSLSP
# light: B1 light
# notes: Substitution in both H chains; position in EU numbering; also called S267L homodimerized antibody
# B12: GpH7-B3 variant L328_14T/GpL16-k0 (Ho Ab) (antibody, human IgG1, kappa)
# heavy: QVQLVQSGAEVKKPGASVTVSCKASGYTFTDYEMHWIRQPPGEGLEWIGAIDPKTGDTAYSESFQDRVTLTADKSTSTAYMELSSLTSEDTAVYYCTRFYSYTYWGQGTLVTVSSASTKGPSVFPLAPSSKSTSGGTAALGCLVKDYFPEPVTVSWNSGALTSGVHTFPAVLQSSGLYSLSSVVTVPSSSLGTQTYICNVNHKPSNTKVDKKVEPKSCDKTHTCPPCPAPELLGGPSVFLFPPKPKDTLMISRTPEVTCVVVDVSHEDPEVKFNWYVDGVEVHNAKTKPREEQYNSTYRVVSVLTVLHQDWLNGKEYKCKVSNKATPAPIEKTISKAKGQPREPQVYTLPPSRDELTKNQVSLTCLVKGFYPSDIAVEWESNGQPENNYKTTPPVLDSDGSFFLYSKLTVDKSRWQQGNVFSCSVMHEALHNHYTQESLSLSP
# light: B1 light
# notes: Substitution in both H chains; position in EU numbering; also called L328T homodimerized antibody
# B13: GpH7-B3 variant S239_18N/GpL16-k0 (Ho Ab) (antibody, human IgG1, kappa)
# heavy: not shown
# light: B1 light
# notes: Substitution in both H chains; position in EU numbering; also called S239N homodimerized antibody
# B14: GpH7-B3 variant P271_01G/GpL16-k0 (Ho Ab) (antibody, human IgG1, kappa)
# heavy: not shown
# light: B1 light
# notes: Substitution in both H chains; position in EU numbering; also called P271G homodimerized antibody
# B15: GpH7-B3 variant S337_10E/GpL16-k0 (Ho Ab) (antibody, human IgG1, kappa)
# heavy: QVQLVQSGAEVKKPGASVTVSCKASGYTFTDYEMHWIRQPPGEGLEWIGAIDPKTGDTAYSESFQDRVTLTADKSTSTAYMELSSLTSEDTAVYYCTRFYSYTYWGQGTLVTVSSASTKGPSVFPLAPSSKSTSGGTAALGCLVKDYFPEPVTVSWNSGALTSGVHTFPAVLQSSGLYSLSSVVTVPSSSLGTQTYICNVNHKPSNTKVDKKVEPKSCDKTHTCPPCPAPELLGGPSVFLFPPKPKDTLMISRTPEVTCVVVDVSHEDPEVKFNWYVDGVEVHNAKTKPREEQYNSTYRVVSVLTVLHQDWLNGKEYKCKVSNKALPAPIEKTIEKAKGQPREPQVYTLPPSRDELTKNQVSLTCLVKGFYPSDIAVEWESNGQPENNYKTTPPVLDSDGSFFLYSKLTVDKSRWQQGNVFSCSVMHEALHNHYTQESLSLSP
# light: B1 light
# notes: Substitution in both H chains; position in EU numbering; also called S337E homodimerized antibody
# B16: GpH7-B3 variant K334_15Y/GpL16-k0 (Ho Ab) (antibody, human IgG1, kappa)
# heavy: not shown
# light: B1 light
# notes: Substitution in both H chains; position in EU numbering; also called K334Y homodimerized antibody
# B17: GpH7-B3 variant P238_08L/GpL16-k0 (Ho Ab) (antibody, human IgG1, kappa)
# heavy: not shown
# light: B1 light
# notes: Substitution in both H chains; position in EU numbering; also called P238L homodimerized antibody
# B18: GpH7-B3 variant S239_07I/GpL16-k0 (Ho Ab) (antibody, human IgG1, kappa)
# heavy: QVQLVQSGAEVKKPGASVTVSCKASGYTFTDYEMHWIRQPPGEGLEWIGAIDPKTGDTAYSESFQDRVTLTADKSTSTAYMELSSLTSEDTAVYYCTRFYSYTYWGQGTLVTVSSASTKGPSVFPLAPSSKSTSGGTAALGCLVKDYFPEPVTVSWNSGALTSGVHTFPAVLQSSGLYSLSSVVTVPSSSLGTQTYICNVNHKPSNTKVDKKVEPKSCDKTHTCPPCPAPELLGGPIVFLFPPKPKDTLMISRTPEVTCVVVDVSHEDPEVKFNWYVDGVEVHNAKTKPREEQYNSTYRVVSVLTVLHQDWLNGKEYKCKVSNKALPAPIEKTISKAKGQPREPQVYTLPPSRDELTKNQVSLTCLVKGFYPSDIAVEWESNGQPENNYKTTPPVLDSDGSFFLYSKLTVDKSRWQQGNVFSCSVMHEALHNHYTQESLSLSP
# light: B1 light
# notes: Substitution in both H chains; position in EU numbering; also called S239I homodimerized antibody
# B19: GpH7-B3 variant T335_04F/GpL16-k0 (Ho Ab) (antibody, human IgG1, kappa)
# heavy: not shown
# light: B1 light
# notes: Substitution in both H chains; position in EU numbering; also called T335F homodimerized antibody
# B20: GpH7-B3 variant S239_01G/GpL16-k0 (Ho Ab) (antibody, human IgG1, kappa)
# heavy: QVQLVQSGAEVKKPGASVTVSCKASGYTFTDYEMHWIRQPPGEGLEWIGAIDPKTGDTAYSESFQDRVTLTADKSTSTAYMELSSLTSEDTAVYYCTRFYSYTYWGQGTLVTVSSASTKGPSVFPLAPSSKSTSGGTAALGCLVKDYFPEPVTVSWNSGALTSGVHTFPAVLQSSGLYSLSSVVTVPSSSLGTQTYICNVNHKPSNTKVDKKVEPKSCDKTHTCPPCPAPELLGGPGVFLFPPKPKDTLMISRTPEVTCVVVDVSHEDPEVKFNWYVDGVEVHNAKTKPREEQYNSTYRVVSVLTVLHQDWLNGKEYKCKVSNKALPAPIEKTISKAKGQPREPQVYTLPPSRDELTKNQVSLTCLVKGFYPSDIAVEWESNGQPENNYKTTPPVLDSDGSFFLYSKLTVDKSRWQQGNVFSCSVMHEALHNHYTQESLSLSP
# light: B1 light
# notes: Substitution in both H chains; position in EU numbering; also called S239G homodimerized antibody
# B21: GpH7-B3 variant S267_14T/GpL16-k0 (Ho Ab) (antibody, human IgG1, kappa)
# heavy: not shown
# light: B1 light
# notes: Substitution in both H chains; position in EU numbering; also called S267T homodimerized antibody
# B22: GpH7-B3 variant K334_19Q/GpL16-k0 (Ho Ab) (antibody, human IgG1, kappa)
# heavy: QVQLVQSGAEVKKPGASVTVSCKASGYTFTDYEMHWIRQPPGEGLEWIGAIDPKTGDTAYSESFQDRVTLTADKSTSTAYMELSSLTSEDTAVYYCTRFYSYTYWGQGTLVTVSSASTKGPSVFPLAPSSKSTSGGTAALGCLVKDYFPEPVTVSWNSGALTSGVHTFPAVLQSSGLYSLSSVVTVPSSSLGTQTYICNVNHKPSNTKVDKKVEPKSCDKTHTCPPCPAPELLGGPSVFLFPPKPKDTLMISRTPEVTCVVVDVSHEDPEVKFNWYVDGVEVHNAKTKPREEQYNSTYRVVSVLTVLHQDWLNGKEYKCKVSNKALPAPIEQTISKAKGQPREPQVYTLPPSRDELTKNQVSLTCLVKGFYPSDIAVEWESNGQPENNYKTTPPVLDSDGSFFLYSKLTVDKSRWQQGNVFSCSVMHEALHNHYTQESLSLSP
# light: B1 light
# notes: Substitution in both H chains; position in EU numbering; also called K334Q homodimerized antibody
# B23: GpH7-B3 variant S267_07I/GpL16-k0 (Ho Ab) (antibody, human IgG1, kappa)
# heavy: not shown
# light: B1 light
# notes: Substitution in both H chains; position in EU numbering; also called S267I homodimerized antibody
# Molecular target: T1, FcγRIIb extracellular domain with …
# Assay: SPR (Biacore), antibody captured on antigen-peptide chip, FcgRIIb as analyte; binding relative to GpH7-B3/GpL16-k0 (HoCon Ab) = 100
row,Ho/Con_2b,Binder
1,188 % of control,B1
2,142 % of control,B2
3,113 % of control,B3
4,111 % of control,B4
5,128 % of control,B5
6,110 % of control,B6
7,124 % of control,B7
8,116 % of control,B8
9,241 % of control,B9
10,106 % of control,B10
11,109 % of control,B11
12,146 % of control,B12
13,125 % of control,B13
14,229 % of control,B14
15,109 % of control,B15
16,126 % of control,B16
17,235 % of control,B17
18,108 % of control,B18
19,107 % of control,B19
20,174 % of control,B20
21,106 % of control,B21
22,117 % of control,B22
23,213 % of control,B23
